These results are taken from patent US20060135432A1, “Agonists and antagonists of conadotropin-releasing hormone-2, and use thereof” (priority 2002, published 2006).

[ ]: non-standard residue; d: D form. dPhe(4-Cl) = N[C@H](Cc1ccc(Cl)cc1)C(=O)O; d2Nal = N[C@H](Cc1ccc2ccccc2c1)C(=O)O; dCit = NC(=O)NCCC[C@@H](N)C(=O)O; d3Pal = N[C@H](Cc1cccnc1)C(=O)O

The target in assay [1] is rat GnRHR (rat) (UniProt P30969). Description: displacement of I^125-GnRH-2 from membranes of GH3 cells expressing rat GnRHR. The conditions noted are these: scale: log IC50.
Assay [2] concerns the target bfGnRHR-3 (bullfrog). Description: displacement of I^125-GnRH-2 from membranes of GH3 cells expressing bfGnRHR-3. The settings on record: scale: log IC50.
In assay [3] the target is bfGnRHR-3 (bullfrog). Description: cell-based or functional assay. The settings on record: for Log IC50, inhibition of GnRH-2-induced inositol phosphate production in GH3 cells expressing the receptor: scale: log IC50.
For assay [4], the target named is rat GnRHR (rat) (UniProt P30969). Description: cell-based or functional assay. The conditions noted are these: scale: log IC50.

Chain of rat GnRHR (rat) (P30969 whole entry): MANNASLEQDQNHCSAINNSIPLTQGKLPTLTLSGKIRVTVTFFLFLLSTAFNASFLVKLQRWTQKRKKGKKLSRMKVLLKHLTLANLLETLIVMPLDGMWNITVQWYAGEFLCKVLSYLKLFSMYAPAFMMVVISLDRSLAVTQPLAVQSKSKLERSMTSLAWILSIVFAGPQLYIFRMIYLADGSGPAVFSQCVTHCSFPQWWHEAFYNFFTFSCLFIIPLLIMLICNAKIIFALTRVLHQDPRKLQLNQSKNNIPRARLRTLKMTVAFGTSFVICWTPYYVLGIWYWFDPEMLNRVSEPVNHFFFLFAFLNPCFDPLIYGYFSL

On to Ac-[d2Nal][dPhe(4-Cl)][d3Pal]SY[dCit]LRP[dA]-NH2 [Cetrorelix], for which the results for the log IC50 in assay [1] and in assay [2] were -12.6 and -7.11, respectively. The same molecule displayed a Log IC50, inhibition of GnRH-2-induced inositol phosphate production in GH3 cells expressing the receptor in assay [3] of -6.28. The molecule further had a Log IC50, inhibition of GnRH-induced inositol phosphate production in GH3 cells expressing the receptor in assay [4] of -11.
As to Ac-[d2Nal][dPhe(4-Cl)][d3Pal]SY[dCit]WYP[dA]-NH2 [Trptorelix-1], in assay [1], the log IC50 was -11.8. Further, in assay [2], the log IC50 was -11.7. Besides, in assay [3], the inhibition of GnRH-2-induced IP production, sensitivity compared with Cetrorelix (fold more sensitive than Cetrorelix) was found to be 1000 and the Log IC50, inhibition of GnRH-2-induced inositol phosphate production in GH3 cells expressing the receptor is -8.49. In addition, the Log IC50, inhibition of GnRH-induced inositol phosphate production in GH3 cells expressing the receptor in assay [4] was -9.27.
